Earlier results on one substance are cited in publication PMC7460888.

pKd: −log10 of the molar value.

The target in this data set is SARS-CoV-2 spike RBD RBD (SARS-CoV-2) (UniProt P0DTC2).

As for SBP1 (ACE2 alpha1 helix peptide), the negative logarithm of the Kd (pKd) (as a rule, the negative decadic logarithm of the Kd, by convention in mol/L) is 7.33.
